Positions count from the first letter of the chain named.
B1: E58 (designed binder)
10Fn3 domain: MGVSDVPRDLEVVAATPTSLLISWSAVRWRYQYYRITYGETGGNSPVQEFTVPGGVRTATISGLKPGVDYTITVYAVTDFYNPRTHVYIYDQFPISINYRTEIDKPSQ
B2: E48 (designed binder)
10Fn3 domain: MGVSDVPRDLEVVAATPTSLLISWRSSATAYQYYRITYGETGGNSPVQEFTVPGRVYTATISGLKPGVDYTITVYAVTDFFNWATHEYIYHSTPISINYRTEIDKPSQ
B3: E56 (designed binder)
10Fn3 domain: MGVSDVPRDLEVVAATPTSLLISWYSGDYHYQYYRITYGETGGNSPVQEFTVPHDLETATISGLKPGVDYTITVYAVTDYYNPATHYYKYEQTPISINYRTEIDKPSQ
B4: E50 (designed binder)
10Fn3 domain: MGVSDVPRDLEVVAATPTSLLISWTVGLSVYQYYRITYGETGGNSPVQEFTVPGMVSTATISGLKPSVDYTITVYAVTDYKPHADGPHTYHEYPISINYRTEIDKPSQ
B5: E46 (designed binder)
10Fn3 domain: MGVSDVPRDLEVVAATPTSLLISWQVGSVVYQYYRITYGETGGNSPVQEFTVPRDVLTATISGLKPGVDYTITVYAVTDYKPKPDGPHIYQAVPISINYRTEIDKPSQ
B6: E49 (designed binder)
10Fn3 domain: MGVSDVPRDLEVVAATPTSLLISWHSGPREYQYYRITYGETGGNSPVQEFTVPGQVYTATISGLKPGVDYTITVYAVTDFFNPITHYYYYELTPISINYRTEIDKPSQ
B7: E51 (designed binder)
10Fn3 domain: MGVSDVPRDLEVVAATPTSLLISWGGHRAVYQYYRITYGETGGNSPVQEFTVPGAVYTATISGLKPGVDYTITVYAVTDYYNPDTHEYKYHQYPISINYRTEIDKPSQ
B8: E53 (designed binder)
10Fn3 domain: B7 10Fn3 domain with G25S, G26V, H27G, R28G, A29M, V30I, A55M, Y57T, D84A, Y93T
B9: E57 (designed binder)
10Fn3 domain: B7 10Fn3 domain with G25I, G26V, H27Q, R28G, A29G, V30R, A55M, Y57T, D84S, Y93T
B10: E54 (designed binder)
10Fn3 domain: MGVSDVPRDLEVVAATPTSLLISWKASYTGYNYYRITYGETGGNSPVQEFTVPRDVMTATISGLKPGVDYTITVYAVTDFYNPDTHQYTYRRIPISINYRTEIDKPSQ
B11: E55 (designed binder)
10Fn3 domain: B7 10Fn3 domain with G25S, G26V, H27G, R28Q, A29V, V30F, G54Y, A55D, D84A, Y93T
B12: E52 (designed binder)
10Fn3 domain: MGVSDVPRDLEVVSATPTSLLISWQVPRPMYQYYRITYGETGGNSPVQEFTVPGGVRTATISGLKPGVDYTITVYAVTDYWFKEYREDPISINYRTEIDKPSQ
B13: E47 (designed binder)
10Fn3 domain: MGVSDVPRDLEVVAATPTSLLISWNPASKDYQYYRITYGETGGNSPVQEFTVPGQVPTATISGLKPGVDYTITVYAVTDFYNPATHEYKYDSTPISINYRTEIDKPSQ
B14: E18 (designed binder)
10Fn3 domain: B4 10Fn3 domain with T25F, G27T, L28H, S29V, V30A, M55G, V56L, S67G, Y93S
B15: E26 (designed binder)
10Fn3 domain: MGVSDVPRDLEVVAATPTSLLISWWIGIPVYQYYRITYGETGGNSPVQEFTVPYDGKTATISGLKPGVDYTITVYAVTDMMHVEYAEYPISINYRTEIDKPSQ
B16: E19 (designed binder)
10Fn3 domain: MGVSDVPRDLEVVAATPTSLLISWETESNAYQYYRITYGETGGNSPVQEFTVPGQIYTATISGLKPGVDYTITVYAVTDYKPHADGPHTYHESPISINYRTEIDKPSQ
B17: E20 (designed binder)
10Fn3 domain: MGVSDVPRDLEVVAATPTSLLISWMTSPSVYQYYRITYGETGGNSPVQEFTVPGPVQTATISGLKPGVDYTITVYAVTDYKEHQHAPHQYTAHPISINYRTEIDKPSQ
B18: E30 (designed binder)
10Fn3 domain: MGVSDVPRDLEVVAATPTSLLISWAIGTIVYQYYRITYGETGGNSPVQEFTVPAGVYTATISGLKPGVDYTITVYAVTDYYDWATHEYNYHTAPISINYRTEIDKPSQ
B19: E27 (designed binder)
10Fn3 domain: MGVSDVPRDLEVVAATPTSLLISWSKGSKSYQYYRITYGETGGNSPVQEFTVPYHVYTATISGLKPGVDYTITVYAVTDYYNPATYEYIYLTTPISINYRTEIDKPSQ
B20: E31 (designed binder)
10Fn3 domain: B19 10Fn3 domain with S25T, K26Y, G27N, S28D, K29G, H55A, Y80F, L91H
B21: E29 (designed binder)
10Fn3 domain: B19 10Fn3 domain with S25Q, K26P, S28T, K29T, S30H, H55D, V56L, Y57M, A84N
B22: E28 (designed binder)
10Fn3 domain: B13 10Fn3 domain with A27G, D30S, Q55G, P57R, A84D, K89L, D91N, S92Q, T93Y
B23: E94 (designed binder)
10Fn3 domain: B4 10Fn3 domain with T25N, V26N, L28G, S29R, V30N, G54Y, M55D, S57Y, S67G
B24: E93 (designed binder)
10Fn3 domain: B4 10Fn3 domain with T25D, V26S, L28R, S29G, V30S, M55G, S57R, S67G
B25: E88 (designed binder)
10Fn3 domain: MGVSDVPRDLEVVAATPTSLLISWSATNKTYQYYRITYGETGGNSPVQEFTVPGGVRTATISGLKPGVDYTITVYAVTDYFNPTTHEYIYQTTPISINYRTEIDKPSQ
B26: E92 (designed binder)
10Fn3 domain: B25 10Fn3 domain with S25Q, T27A, K29H, T30S, Y80F, T84V, I89K, Q91R, T93I
B27: E96 (designed binder)
10Fn3 domain: B25 10Fn3 domain with S25A, A26S, T27N, N28R, K29G, R57S, Y80A, I89N, Q91F
B28: E86 (designed binder)
10Fn3 domain: MGVSDVPRDLEVVAATPTSLLISWDSGENNYQYYRITYGETGGNSPVQEFTVPGGVRTATISGLKPGVDYTITVYAVTDYYNPKTHEYNYLTIPISINYRTEIDKPSQ
B29: E89 (designed binder)
10Fn3 domain: MGVSDVPRDLEVVAATPTSLLISWDDPAANRQYYRITYGETGGNSPVQEFTVPYDLRTATISGLKPGVDYTITVYAVTDYYNPATHQYKYSQSPISINYRTEIDKPSQ
B30: E97 (designed binder)
10Fn3 domain: B16 10Fn3 domain with E25L, T26P, E27G, S28K, N29L, A30R, G54H, Q55D, I56L, Y57R
B31: E90 (designed binder)
10Fn3 domain: MGVSDVPRDLEVVAATPTSLLISWYWEGLPYQYYRITYGETGGNSPVQEFTVPRDVNTATISGLKPGVDYTITVYAVTDWYNPDTHEYIYHTIPISINYRTEIDKPSQ
B32: E87 (designed binder)
10Fn3 domain: MGVSDVPRDLEVVAATPTSLLISWGSPLIEYQYYRITYGETGGNSPVQEFTVPGGLSTATISGLKPGVDYTITVYAVTDYFNPATHEYTYHVSPISINYRTEIDKPSQ
B33: E95 (designed binder)
10Fn3 domain: B32 10Fn3 domain with G25V, S26V, L28Q, I29G, E30M, L56V, T89N, V92S, S93I
B34: E91 (designed binder)
10Fn3 domain: MGVSDVPRDLEVVAATPTSLLISWSAPWRTYQYYRITYGETGGNSPVQEFTVPYDVYTATISGLKPGVDYTITVYAVTDYLNPNTLEYTYQRIPISINYRTEIDKPSQ

Biological target: T1, EGFR on the surface of human tumour cells (A431, H292) (human, UniProt P00533 25-1210)
Assay: cell-based or functional assay

Row | % inhibition of EGFR phosphorylation at 100 nM binder, cell-based assay | Binder
1 | 79.7% | B1
2 | 88.6% | B2
3 | 84.2% | B3
4 | 77.4% | B4
5 | 77% | B5
6 | 83.5% | B6
7 | 82.8% | B7
8 | 79.8% | B8
9 | 75.5% | B9
10 | 76.1% | B10
11 | 99.1% | B11
12 | 75.3% | B12
13 | 76.9% | B13

Biological target: T1, EGFR on the surface of human tumour …
Assay: cell-based or functional assay
Remark: another data set of the same source

Row | % inhibition of EGFR phosphorylation at 100 nM binder, cell-based assay | Binder
14 | 91.1% | B14
15 | 75.4% | B15
16 | 84.6% | B16
17 | 80.2% | B17
18 | 87.3% | B18
19 | 94.6% | B19
20 | 75.8% | B20
21 | 87.9% | B21
22 | 85.3% | B22

Biological target: T1, EGFR on the surface of human tumour …
Assay: cell-based or functional assay
Remark: another data set of the same source

Row | % inhibition of EGFR phosphorylation at 100 nM binder, cell-based assay | Binder
23 | 78.7% | B23
24 | 76.9% | B24
25 | 89.3% | B25
26 | 88.5% | B26
27 | 91.7% | B27
28 | 84.7% | B28
29 | 82.6% | B29
30 | 89.3% | B30
31 | 81.3% | B31
32 | 87% | B32
33 | 98% | B33
34 | 84.7% | B34

Reference: patent publication US20180037631A1 (Bristol-Myers Squibb, published 2018)
